System: HEK293T cells
Test: Expression of CD5 binder (ATAK) receptor and GFP by flow cytometry with labeled CD5 after LINE-1 plasmid transfection
Format: cell-based, human
Details: HEK293T cells transfected with LINE-1 plasmid, 3 kb cargo; labeled CD5 as bait; FIG. 9C
Excerpt: HEK 293 cells were transfected with a plasmid having the LINE-1 elements, with a 3 kb cargo sequence encoding recombinant receptor protein CD5-intron-fcr-PI3K (ATAK) that is interrupted by an intron sequence in the CD5 binding domain. The cargo is a chimeric receptor that has a CD5 binding extracellular domain, a FCRγ transmembrane domain, and an intracellular domain having a PI3-kinase recruitment domain. As in the design of the experiment above, the ATAK receptor cannot express unless it is integrated in the genome and the intron is spliced off. Following transfection in HEK293T cells, the receptor expression is detected using labeled CD5 as bait for the CD5 binding extracellular domain. Results shown in FIGS. 9B and 9C show successful integration and expression of the receptor. 36.5% cells were ATAK (CD5 binder) positive (FIG. 9C).
In a further modification, a LINE-1 construct (LINE-1plasmid-cd5_fcr-pi3k_t2a_GFPintron) with a longer 3.7 kb cargo sequence encoding a non-interrupted recombinant receptor protein CD5-intron-fcr-PI3K and an interrupted GFP sequence with a T2A sequence between receptor and the GFP sequences (FIG. 10A). […] Exemplary fluorescence identification of GFP and fluorescent tagged CD5 binding and gating quantitation for experimental runs are shown in FIG. 10C and FIG. 10D.
The cargo GFP gene in the previous construct was replaced with intron interrupted CD5-FcR-P13K CAR-M sequence (Morrissey et al., 2018). The CD5 binder expression was measured by flow cytometry using a Alexa647-conjugated CD5 protein such that retrotransposed cells are CD5-AF647 positive (red histogram) compared with a plasmid transfected negative control cell population (grey histogram) (FIG. 30).
The cargo gene length was extended by adding the intron-interrupted GFP gene after the T2A sequence downstream of the CD5-FcR-PI3K CAR-M sequence (FIG. 31). The CD5 binder expression was measured by flow cytometry using a Alexa647-conjugated CD5 protein. […]

B1: CD5-intron-fcr-PI3K: LINE-1 plasmid with 3 kb cargo encoding intron-interrupted CD5 binding chimeric receptor (ATAK) (SEQ ID NO: 39) (nucleic acid)
DNA: CGGCCGCGGGGGGAGGAGCCAAGATGGCCGAATAGGAACAGCTCCGGTCTACAGCTCCCAGCGTGAGCGACGCAGAAGACGGTGATTTCTGCATTTCCATCTGAGGTACCGGGTTCATCTCACTAGGGAGTGCCAGACAGTGGGCGCAGGCCAGTGTGTGTGCGCACCGTGCGCGAGCCGAAGCAGGGCGAGGCATTGCCTCACCTGGGAAGCGCAAGGGGTCAGGGAGTTCCCTTTCCGAGTCAAAGAAAGGGGTGACGGACGCACCTGGAAAATCGGGTCACTCCCACCCGAATATTGCGCTTTTCAGACCGGCTTAAGAAACGGCGCACCACGAGACTATATCCCACACCTGGCTCGGAGGGTCCTACGCCCACGGAATCTCGCTGATTGCTAGCACAGCAGTCTGAGATCAAACTGCAAGGCGGCAACGAGGCTGGGGGAGGGGCGCCCGCCATTGCCCAGGCTTGCTTAGGTAAACAAAGCAGCAGGGAAGCTCGAACTGGGTGGAGCCCACCACAGCTCAAGGAGGCCTGCCTGCCTCTGTAGGCTCCACCTCTGGGGGCAGGGCACAGACAAACAAAAAGACAGCAGTAACCTCTGCAGACTTAAGTGTCCCTGTCTGACAGCTTTGAAGAGAGCAGTGGTTCTCCCAGCACGCAGCTGGAGATCTGAGAACGGGCAGACTGCCTCCTCAAGTGGGTCCCTGACCCCTGACCCCCGAGCAGCCTAACTGGGAGGCACCCCCCAGCAGGGGCACACTGACACCTCACACGGCAGGGTATTCCAACAGACCTGCAGCTGAGGGTCCTGTCTGTTAGAAGGAAAACTAACAACCAGAAAGGACATCTACACCGAAAACCCATCTGTACATCACCATCATCAAAGACCAAAAGTAGATAAAACCACAAAGATGGGGAAAAAACAGAACAGAAAAACTGGAAACTCTAAAACGCAGAGCGCCTCTCCTCCTCCAAAGGAACGCAGTTCCTCACCAGCAACAGAACAAAGCTGGATGGAGAATGATTTTGATGAGCTGAGAGAAGAAGGCTTCAGACGATCAAATTACTCTGAGCTACGGGAGGACATTCAAACCAAAGGCAAAGAAGTTGAAAACTTTGAAAAAAATTTAGAAGAATGTATAACTAGAATAACCAATACAGAGAAGTGCTTAAAGGAGCTGATGGAGCTGAAAACCAAGGCTCGAGAACTACGTGAAGAATGCAGAAGCCTCAGGAGCCGATGCGATCAACTGGAAGAAAGGGTATCAGCAATGGAAGATGAAATGAATGAAATGAAGCGAGAAGGGAAGTTTAGAGAAAAAAGAATAAAAAGAAATGAGCAAAGCCTCCAAGAAATATGGGACTATGTGAAAAGACCAAATCTACGTCTGATTGGTGTACCTGAAAGTGATG
cells ATAK (CD5 binder) positive: 36.5%

— patent publication US12319925B2, “Methods and compositions for genomic integration” (Myeloid Therapeutics, Inc., priority 2021, dated 2025)
